Kd data for 1 molecule are collected here from PMC4405178 (Biochemistry, 2015).

For orientation: Kd means the free concentration of one partner at which half of the binding sites on the other are occupied at equilibrium, for simple one-to-one binding. Read a low Kd as a tighter complex.

The test addresses T1, C-terminally truncated wild-type Ste2p (Saccharomyces cerevisiae, UniProt D6VTK4 1-303).
T1 sequence (looked up): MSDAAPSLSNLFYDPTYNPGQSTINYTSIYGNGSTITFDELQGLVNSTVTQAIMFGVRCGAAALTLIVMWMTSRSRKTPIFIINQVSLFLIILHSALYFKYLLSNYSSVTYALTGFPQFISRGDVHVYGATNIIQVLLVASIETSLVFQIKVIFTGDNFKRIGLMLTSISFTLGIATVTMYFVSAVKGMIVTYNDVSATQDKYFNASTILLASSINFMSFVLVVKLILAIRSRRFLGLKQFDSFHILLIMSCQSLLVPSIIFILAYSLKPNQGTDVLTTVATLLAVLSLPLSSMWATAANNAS
As to the kind of experiment: flow cytometry on cells. In general terms: In flow cytometry, cells or beads pass a laser one at a time.

B1: [K^7(NBD),Nle^12] α-factor (peptide)
chain: WHWLQLKPGQPMY
modifications: NBD (7-nitrobenz-2-oxa-1,3-diazol-4-yl) conjugated to the lysine at position 7; norleucine at position 12 in place of methionine
The molecule B1 showed a Kd of 45 ± 1.7 nM.
